Assay results: IntAct's records for PubMed 25281559

B1: Casein kinase I homolog HRR25 (Saccharomyces cerevisiae), P29295 (parent)
chain: MDLRVGRKFRIGRKIGSGSFGDIYHGTNLISGEEVAIKLESIRSRHPQLDYESRVYRYLSGGVGIPFIRWFGREGEYNAMVIDLLGPSLEDLFNYCHRRFSFKTVIMLALQMFCRIQYIHGRSFIHRDIKPDNFLMGVGRRGSTVHVIDFGLSKKYRDFNTHRHIPYRENKSLTGTARYASVNTHLGIEQSRRDDLESLGYVLIYFCKGSLPWQGLKATTKKQKYDRIMEKKLNVSVETLCSGLPLEFQEYMAYCKNLKFDEKPDYLFLARLFKDLSIKLEYHNDHLFDWTMLRYTKAMVEKQRDLLIEKGDLNANSNAASASNSTDNKSETFNKIKLLAMKKFPTHFHYYKNEDKHNPSPEEIKQQTILNNNAASSLPEELLNALDKGMENLRQQQPQQQVQSSQPQPQPQQLQQQPNGQRPNYYPEPLLQQQQRDSQEQQQQVPMATTRATQYPPQINSNNFNTNQASVPPQMRSNPQQPPQDKPAGQSIWL
partner: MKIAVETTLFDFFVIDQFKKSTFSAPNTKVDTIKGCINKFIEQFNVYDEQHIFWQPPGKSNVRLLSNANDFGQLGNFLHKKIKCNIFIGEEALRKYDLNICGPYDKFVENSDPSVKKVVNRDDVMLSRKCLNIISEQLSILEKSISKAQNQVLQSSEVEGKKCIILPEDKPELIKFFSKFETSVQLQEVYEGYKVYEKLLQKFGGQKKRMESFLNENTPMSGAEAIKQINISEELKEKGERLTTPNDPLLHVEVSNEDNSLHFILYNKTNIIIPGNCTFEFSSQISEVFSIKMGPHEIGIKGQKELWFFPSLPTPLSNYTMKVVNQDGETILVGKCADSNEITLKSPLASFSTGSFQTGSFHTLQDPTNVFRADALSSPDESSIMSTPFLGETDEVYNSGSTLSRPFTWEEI

Variants of: B1
Conditions: with atg34_yeast ATG34, Q12292

effect of a mutation on the interaction	Variant
disrupting interaction	K38A
